Reference: patent WO2015070078A1

Columns and labels:
[1] = target: mouse FcγRIV (mouse); experiment: ELISA, recombinant mouse FcγRIV coated on the plate
[2] = target: human FcγRIIIa (158V variant) (human) (UniProt P08637); experiment: flow cytometry titration on CHO cells expressing human FcγRIIIa-158V
[3] = target: human FcγRIIb (human) (UniProt P31994); experiment: flow cytometry on CHO cells expressing human FcγRIIb; antibody as dimeric complex with PE-conjugated Fab'2 anti-human Fab'2
[4] = target: human FcγRIIIa 158F variant (human) (UniProt P08637); experiment: flow cytometry titration on CHO cells expressing human FcγRIIIa-158F
[5] = target: mouse FcγRIIb (mouse) (UniProt P08101); experiment: ELISA, recombinant mouse FcγRIIb coated on the plate
[6] = target: human FcγRIIIA (CD16A), variant at 158 not stated (human) (UniProt P08637); experiment: cell-based or functional assay; parameters: unit not given beside the values

Substance: ESKM (produced in MAGE 1.5 CHO cells, no detectable fucose or galactose) (antibody)
- higher affinity (against ESK1) [1]: 51%
- higher affinity (against normally glycosylated ESK1) [2]: 80%
- reduced affinity (against normally glycosylated ESK1) [3]: 50%
- fold higher affinity (against normally glycosylated ESK1) [4]: 3.5 fold
- affinity as a fraction of that of ESK1 [5]: 0.5 fold

Substance: ESK1 (antibody)
- EC50 of reverse signaling through FcγRIIIA (CD16A): NFAT-luciferase reporter in Jurkat cells with RMF-pulsed T2 cells [6]: 0.88

Substance: ESKM having 100% reduced fucose content relative to ESK1 wildtype IgG1 (GlymaxX technology, CHO cells) (antibody)
- EC50 of reverse signaling through FcγRIIIA (CD16A): NFAT-luciferase reporter in Jurkat cells with RMF-pulsed T2 cells [6]: 0.17

Substance: ESK1 containing D265A/P329A mutations in the Fc domain (antibody)
- EC50 of reverse signaling through FcγRIIIA (CD16A): NFAT-luciferase reporter in Jurkat cells with RMF-pulsed T2 cells [6]: > 10000
